Data taken from publication PMC4406679.

Biological target: T1, His-OpaR (Vibrio parahaemolyticus BB22OP) (UniProt Q79YV4)
T1 sequence: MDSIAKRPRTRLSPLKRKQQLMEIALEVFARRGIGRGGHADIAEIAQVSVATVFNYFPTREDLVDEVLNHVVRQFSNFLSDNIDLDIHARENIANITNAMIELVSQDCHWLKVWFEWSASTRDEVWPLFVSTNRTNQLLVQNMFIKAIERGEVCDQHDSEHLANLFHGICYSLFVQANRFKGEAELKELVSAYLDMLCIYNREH
Assay: EMSA
Settings: 10 mM Tris-HCl pH 7.5, 50 mM NaCl, 1 mM MgCl2, 0.5 mM EDTA, 0.5 mM DTT, 0.05 mg/ml poly d(I-C), 150 ug/ml BSA; temperature not stated

CTGTAAGTGAAGAATAATACCGAATGAAGTTTAAAGGCGCTCGAATGAGCGCCTTTTTTATTTGTCATGGAAAACGATAAGAACGAATATGCCGAACATTGAGATCATTCGCTTTAACCACTT (double strand) [araC family (VPBB_A0554) promoter]
binding: no binding
